Assay [1] has as its target human epidermal growth factor receptor (EGFR) (human) (UniProt P00533).
The target is the same in assay [2]. The source holds these as a separate data set.
The target is the same in assay [3]. The source holds these as a separate data set.

Changes are numbered by the printed parent chain.

B1: muEGFR-6 (antibody, V domains shown)
VH: QVQLQQSGAELARPGASVKLSCKASGYTFTSYWMQWVKQRPGQGLECIGALYPGDGDARYTQKFKGKATLTADRSSSTAYMQLSSLASEDSAVYYCARYDAPGYAMDYWGQGTSVTVAS
VL: DIQMTQSPSSLSASLGGKVTITCKASQDINNYIAWYQHKPGKGPRLLIHYTSTLHPGIPSRFSGSGSGRDYSFSISNLEPEDIATYYCLQYDNLLYTFGGGTKLEIKR
For B1, the EC50 (nM), H292 tumor cell growth inhibition (Example 11, WST-8) in assay [1] came to 2.59 nM. Further, in assay [2], the EC50 (nM), inhibition of basal proliferation of HCC827 cells (WST-8, 5 days) was 0.3 nM and the Maximal inhibition (%) of basal proliferation of HCC827 cells is 72%. In assay [3], this molecule registered an EC50 (nM), inhibition of basal proliferation of NCI-H292 cells (WST-8, 5 days) of 5.6 nM and a Maximal inhibition (%) of basal proliferation of NCI-H292 cells of 65%.

B2: muEGFR-7 (antibody, V domains shown)
VH: B1 VH with A50T, L51I, A58T, R59T, R74K, A118S
VL: B1 VL with I33L
In turn, B2 gave an EC50 (nM), H292 tumor cell growth inhibition (Example 11, WST-8) in assay [1] of 0.21 nM. In assay [2], the EC50 (nM), inhibition of basal proliferation of HCC827 cells (WST-8, 5 days) stood at 0.03 nM and the Maximal inhibition (%) of basal proliferation of HCC827 cells stood at 72%. Besides, in assay [3], the EC50 (nM), inhibition of basal proliferation of NCI-H292 cells (WST-8, 5 days) came to 0.4 nM and the Maximal inhibition (%) of basal proliferation of NCI-H292 cells was determined as 77%.

The values are drawn from patent US9125896B2.
